Test results as given in US20050106141A1 (PROCTER AND GAMBLE, published 2005).

T1: LexA BD-HRt (mouse, UniProt P0A7C2 1-202; Q61645 490-1182)
T1 construct: domain: Lex A DNA BD;range 490-1182; also called BD-HRt(mouse); Lex A DNA BD-HRt
T1 sequence (looked up): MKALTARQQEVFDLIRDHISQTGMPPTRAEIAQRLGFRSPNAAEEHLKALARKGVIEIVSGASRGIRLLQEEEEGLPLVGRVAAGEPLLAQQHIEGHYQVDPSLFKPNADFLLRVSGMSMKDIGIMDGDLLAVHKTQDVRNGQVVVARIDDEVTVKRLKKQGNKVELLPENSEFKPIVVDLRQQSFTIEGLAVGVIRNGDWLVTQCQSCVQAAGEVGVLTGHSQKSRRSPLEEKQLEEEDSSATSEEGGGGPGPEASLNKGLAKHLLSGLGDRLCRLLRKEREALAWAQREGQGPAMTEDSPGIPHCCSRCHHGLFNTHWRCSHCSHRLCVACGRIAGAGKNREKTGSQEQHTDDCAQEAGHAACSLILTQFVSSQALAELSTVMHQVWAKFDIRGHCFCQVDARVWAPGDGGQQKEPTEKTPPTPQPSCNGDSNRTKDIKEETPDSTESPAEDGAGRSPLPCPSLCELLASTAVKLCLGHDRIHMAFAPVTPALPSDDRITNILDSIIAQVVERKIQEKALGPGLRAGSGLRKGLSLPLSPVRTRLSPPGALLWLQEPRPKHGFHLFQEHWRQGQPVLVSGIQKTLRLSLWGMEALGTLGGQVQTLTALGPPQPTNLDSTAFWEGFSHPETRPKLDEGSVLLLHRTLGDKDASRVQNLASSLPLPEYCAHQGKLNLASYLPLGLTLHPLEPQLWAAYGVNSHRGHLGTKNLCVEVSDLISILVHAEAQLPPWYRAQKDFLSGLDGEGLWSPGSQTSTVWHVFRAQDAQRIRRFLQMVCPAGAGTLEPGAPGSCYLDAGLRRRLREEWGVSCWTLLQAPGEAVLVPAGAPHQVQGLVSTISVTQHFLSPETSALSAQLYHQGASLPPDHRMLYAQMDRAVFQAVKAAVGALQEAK

B1: Homo Sapiens Inner Membrane Protein, Mitochondrial (Mitofilin) (other, UniProt Q16891 1-758, looked up, not shown: large carriers)
chain: MLRACQLSGVTAAAQSCLCGKFVLRPLRPCRRYSTSGSSGLTTGKIAGAGLLFVGGGIGGTILYAKWDSHFRESVEKTIPYSDKLFEMVLGPAAYNVPLPKKSIQSGPLKISSVSEVMKESKQPASQLQKQKGDTPASATAPTEAAQIISAAGDTLSVPAPAVQPEESLKTDHPEIGEGKPTPALSEEASSSSIRERPPEEVAARLAQQEKQEQVKIESLAKSLEDALRQTASVTLQAIAAQNAAVQAVNAHSNILKAAMDNSEIAGEKKSAQWRTVEGALKERRKAVDEAADALLKAKEELEKMKSVIENAKKKEVAGAKPHITAAEGKLHNMIVDLDNVVKKVQAAQSEAKVVSQYHELVVQARDDFKRELDSITPEVLPGWKGMSVSDLADKLSTDDLNSLIAHAHRRIDQLNRELAEQKATEKQHITLALEKQKLEEKRAFDSAVAKALEHHRSEIQAEQDRKIEEVRDAMENEMRTQLRRQAAAHTDHLRDVLRVQEQELKSEFEQNLSEKLSEQELQFRRLSQEQVDNFTLDINTAYARLRGIEQAVQSHAVAEEEARKAHQLWLSVEALKYSMKTSSAETPTIPLGSAVEAIKANCSDNEFTQALTAAIPPESLTRGVYSEETLRARFYAVQKLARRVAMIDETRNSLYQYFLSYLQSLLLFPPQQLKPPPELCPEDINTFKLLSYASYCIEHGDLELAAKFVNQLKGESRRVAQDWLKEARMTLETKQIVEILTAYASAVGIGTTQVQPE
notes: Prey clone; extent of the clone unknown; also called AD-IP; BC002412
B2: Homo Sapiens Keratin 5 (other, UniProt P13647 1-590, looked up, not shown: large carriers)
chain: MSRQSSVSFRSGGSRSFSTASAITPSVSRTSFTSVSRSGGGGGGGFGRVSLAGACGVGGYGSRSLYNLGGSKRISISTSGGSFRNRFGAGAGGGYGFGGGAGSGFGFGGGAGGGFGLGGGAGFGGGFGGPGFPVCPPGGIQEVTVNQSLLTPLNLQIDPSIQRVRTEEREQIKTLNNKFASFIDKVRFLEQQNKVLDTKWTLLQEQGTKTVRQNLEPLFEQYINNLRRQLDSIVGERGRLDSELRNMQDLVEDFKNKYEDEINKRTTAENEFVMLKKDVDAAYMNKVELEAKVDALMDEINFMKMFFDAELSQMQTHVSDTSVVLSMDNNRNLDLDSIIAEVKAQYEEIANRSRTEAESWYQTKYEELQQTAGRHGDDLRNTKHEISEMNRMIQRLRAEIDNVKKQCANLQNAIADAEQRGELALKDARNKLAELEEALQKAKQDMARLLREYQELMNTKLALDVEIATYRKLLEGEECRLSGEGVGPVNISVVTSSVSSGYGSGSGYGGGLGGGLGGGLGGGLAGGSSGSYYSSSSGGVGLGGGLSVGGSGFSASSGRGLGVGFGSGGGSSSSVKFVSTTSSSRKSFKS
notes: Prey clone of the human keratinocyte AD-cDNA library; whole protein named, extent of the clone unknown; also called AD-IP; BC024292
B3: Homo Sapiens Retinoic Acid Receptor Gamma-1 (receptor, UniProt P13631 1-454, looked up, not shown: large carriers)
chain: MATNKERLFAAGALGPGSGYPGAGFPFAFPGALRGSPPFEMLSPSFRGLGQPDLPKEMASLSVETQSTSSEEMVPSSPSPPPPPRVYKPCFVCNDKSSGYHYGVSSCEGCKGFFRRSIQKNMVYTCHRDKNCIINKVTRNRCQYCRLQKCFEVGMSKEAVRNDRNKKKKEVKEEGSPDSYELSPQLEELITKVSKAHQETFPSLCQLGKYTTNSSADHRVQLDLGLWDKFSELATKCIIKIVEFAKRLPGFTGLSIADQITLLKAACLDILMLRICTRYTPEQDTMTFSDGLTLNRTQMHNAGFGPLTDLVFAFAGQLLPLEMDDTETGLLSAICLICGDRMDLEEPEKVDKLQEPLLEALRLYARRRRPSQPYMFPRMLMKITDLRGISTKGAERAITLKMEIPGPMPPLIREMLENPEMFEDDSSQPGPHPNASSEDEVPGGQGKGGLKSPA
notes: Prey clone; extent of the clone unknown; also called Human Retinoic Acid Receptor Gamma 1; AD-IP
B4: Homo Sapiens Nucleoporin 160 Kda (other, UniProt Q12769 1-1436, looked up, not shown: large carriers)
chain: MLHLSAAPPAPPPEVTATARPCLCSVGRRGDGGKMAAAGALERSFVELSGAERERPRHFREFTVCSIGTANAVAGAVKYSESAGGFYYVESGKLFSVTRNRFIHWKTSGDTLELMEESLDINLLNNAIRLKFQNCSVLPGGVYVSETQNRVIILMLTNQTVHRLLLPHPSRMYRSELVVDSQMQSIFTDIGKVDFTDPCNYQLIPAVPGISPNSTASTAWLSSDGEALFALPCASGGIFVLKLPPYDIPGMVSVVELKQSSVMQRLLTGWMPTAIRGDQSPSDRPLSLAVHCVEHDAFIFALCQDHKLRMWSYKEQMCLMVADMLEYVPVKKDLRLTAGTGHKLRLAYSPTMGLYLGIYMHAPKRGQFCIFQLVSTESNRYSLDHISSLFTSQETLIDFALTSTDIWALWHDAENQTVVKYINFEHNVAGQWNPVFMQPLPEEEIVIRDDQDPREMYLQSLFTPGQFTNEALCKALQIFCRGTERNLDLSWSELKKEVTLAVENELQGSVTEYEFSQEEFRNLQQEFWCKFYACCLQYQEALSHPLALHLNPHTNMVCLLKKGYLSFLIPSSLVDHLYLLPYENLLTEDETTISDDVDIARDVICLIKCLRLIEESVTVDMSVIMEMSCYNLQSPEKAAEQILEDMITIDVENVMEDICSKLQEIRNPIHAIGLLIREMDYETEVEMEKGFNPAQPLNIRMNLTQLYGSNTAGYIVCRGVHKIASTRFLICRDLLILQQLLMRLGDAVIWGTGQLFQAQQDLLHRTAPLLLSYYLIKWGSECLATDVPLDTLESNLQHLSVLELTDSGALMANRFVSSPQTIVELFFQEVARKHIISHLFSQPKAPLSQTGLNWPEMITAITSYLLQLLWPSNPGCLFLECLMGNCQYVQLQDYIQLLHPWCQVNVGSCRFMLGRCYLVTGEGQKALECFCQAASEVGKEEFLDRLIRSEDGEIVSTPRLQYYDKVLRLLDVIGLPELVIQLATSAITEAGDDWKSQATLRTCIFKHHLDLGHNSQAYEALTQIPDSSRQLDCLRQLVVVLCERSQLQDLVEFPYVNLHNEVVGIIESRARAVDLMTHNYYELLYAFHIYRHNYRKAGTVMFEYGMRLGREVRTLRGLEKQGNCYLAALNCLRLIRPEYAWIVQPVSGAVYDRPGASPKRNHDGECTAAPTNRQIEILELEDLEKECSLARIRLTLAQHDPSAVAVAGSSSAEEMVTLLVQAGLFDTAISLCQTFKLPLTPVFEGLAFKCIKLQFGGEAAQAEAWAWLAANQLSSVITTKESSATDEAWRLLSTYLERYKVQNNLYHHCVINKLLSHGVPLPNWLINSYKKVDAAELLRLYLNYDLLEEAVDLVSEYVDAVLGKGHQYFGIEFPLSATAPMVWLPYSSIDQLLQALGENSANSHNIALSQKILDKLEDYQQKVDKATRDLLYRRTL
notes: Prey clone; extent of the clone unknown; also called Homo Sapiens Nucleoporin 160 kD (NUP160); AD-IP
B5: Homo Sapiens Insulin-like Growth Factor Binding Domain Protein 6 (other, UniProt P24592 28-240, looked up, not shown: large carriers)
chain: RCPGCGQGVQAGCPGGCVEEEDGGSPAEGCAEAEGCLRREGQECGVYTPNCAPGLQCHPPKDDEAPLRALLLGRGRCLPARAPAVAEENPKESKPQAGTARPQDVNRRDQQRNPGTSTTPSQPNSAGVQDTEMGPCRRHLDSVLQQLQTEVYRGAQTLYVPNCDHRGFYRKRQCRSSQGQRRGPCWCVDRMGKSLPGSPDGNGSSSCPTGSSG
notes: Prey clone; extent of the clone unknown; also called AD-IP
B6: Homo Sapiens Protein Inhibitor of Activated STAT-3 (PIAS3) (other, UniProt Q9Y6X2 1-628, looked up, not shown: large carriers)
chain: MAELGELKHMVMSFRVSELQVLLGFAGRNKSGRKHELLAKALHLLKSSCAPSVQMKIKELYRRRFPRKTLGPSDLSLLSLPPGTSPVGSPGPLAPIPPTLLAPGTLLGPKREVDMHPPLPQPVHPDVTMKPLPFYEVYGELIRPTTLASTSSQRFEEAHFTFALTPQQVQQILTSREVLPGAKCDYTIQVQLRFCLCETSCPQEDYFPPNLFVKVNGKLCPLPGYLPPTKNGAEPKRPSRPINITPLARLSATVPNTIVVNWSSEFGRNYSLSVYLVRQLTAGTLLQKLRAKGIRNPDHSRALIKEKLTADPDSEVATTSLRVSLMCPLGKMRLTVPCRALTCAHLQSFDAALYLQMNEKKPTWTCPVCDKKAPYESLIIDGLFMEILSSCSDCDEIQFMEDGSWCPMKPKKEASEVCPPPGYGLDGLQYSPVQGGDPSENKKKVEVIDLTIESSSDEEDLPPTKKHCSVTSAAIPALPGSKGVLTSGHQPSSVLRSPAMGTLGGDFLSSLPLHEYPPAFPLGADIQGLDLFSFLQTESQHYGPSVITSLDEQDALGHFFQYRGTPSHFLGPLAPTLGSSHCSATPAPPPGRVSSIVAPGGALREGHGGPLPSGPSLTGCRSDIISLD
notes: Prey clone; extent of the clone unknown; also called AD-IP; BC030556
B7: Homo Sapiens Thyroid Hormone Receptor Alpha (receptor, UniProt P10827-2 1-410, looked up, not shown: large carriers)
chain: MEQKPSKVECGSDPEENSARSPDGKRKRKNGQCSLKTSMSGYIPSYLDKDEQCVVCGDKATGYHYRCITCEGCKGFFRRTIQKNLHPTYSCKYDSCCVIDKITRNQCQLCRFKKCIAVGMAMDLVLDDSKRVAKRKLIEQNRERRRKEEMIRSLQQRPEPTPEEWDLIHIATEAHRSTNAQGSHWKQRRKFLPDDIGQSPIVSMPDGDKVDLEAFSEFTKIITPAITRVVDFAKKLPMFSELPCEDQIILLKGCCMEIMSLRAAVRYDPESDTLTLSGEMAVKREQLKNGGLGVVSDAIFELGKSLSAFNLDDTEVALLQAVLLMSTDRSGLLCVDKIEKSQEAYLLAFEHYVNHRKHNIPHFWPKLLMKVTDLRMIGACHASRFLHMKVECPTELFPPLFLEVFEDQEV
notes: Prey clone; extent of the clone unknown; also called AD-IP; BC000261
B8: Homo Sapiens Annexin A1 (Lipocortin 1 or P35) (other, UniProt P04083 1-346, looked up, not shown: large carriers)
chain: MAMVSEFLKQAWFIENEEQEYVQTVKSSKGGPGSAVSPYPTFNPSSDVAALHKAIMVKGVDEATIIDILTKRNNAQRQQIKAAYLQETGKPLDETLKKALTGHLEEVVLALLKTPAQFDADELRAAMKGLGTDEDTLIEILASRTNKEIRDINRVYREELKRDLAKDITSDTSGDFRNALLSLAKGDRSEDFGVNEDLADSDARALYEAGERRKGTDVNVFNTILTTRSYPQLRRVFQKYTKYSKHDMNKVLDLELKGDIEKCLTAIVKCATSKPAFFAEKLHQAMKGVGTRHKALIRIMVSRSEIDMNDIKAFYQKMYGISLCQAILDETKGDYEKILVALCGGN
notes: Prey clone; extent of the clone unknown; also called AD-IP; BC001275

Biological target: T1, LexA BD-HRt
Experiment: yeast two-hybrid library screen; number of positive clones with this identity
Text: Clontech Human Keratinocyte GAL4 cDNA library (complexity 2.5×10⁶) in pACT2 vector was used used to screen for HRt interacting proteins. A Leu⁻, Trp⁻ yeast strain with HIS3 and LACZ reporters for yeasts two hybrid interaction (strain L41) was first transformed with LexA BD-HRt palsmid) for Trp⁺ phenotype. The resulting L41/LexA BD-HR transformant was screened to ensure expression of LexA BD-HRt protein and also for lack of auto activation of the reporter genes HIS3 and LACZ. This strain was transformed with Keratinocyte AD-cDNA library and plated on Trp⁻Leu⁻His⁻ plate to select for clones with positive interaction. Colonies that appeared on selsctive plates were subsequently tested for LACZ expression on X-GAL plates. […] AD-plasmid was rescued from the 90 clones and retested for HRt bait dependance. […] The positive clones are expected to contain an AD-IP (interacting partner) that interacts with BD-HRt.

Hits | Binder
3 | B1
1 | B2
1 | B3
3 | B4
1 | B5
1 | B6
7 | B7
1 | B8
